According to patent publication US20200024330A1 (published 2020):
Changes are numbered by the printed parent chain.

B1: 1496_C09 (PG9) (TCN-109) (antibody, V domains shown)
VH: QRLVESGGGVVQPGSSLRLSCAASGFDFSRQGMHWVRQAPGQGLEWVAFIKYDGSEKYHADSVWGRLSISRDNSKDTLYLQMNSLRVEDTATYFCVREAGGPDYRNGYNYYDFYDGYYNYHYMDVWGKGTTVTVSS
VL: QSALTQPASVSGSPGQSITISCNGTSNDVGGYESVSWYQQHPGKAPKVVIYDVSKRPSGVSNRFSGSKSGNTASLTISGLQAEDEGDYYCKSLTSTRRRVFGTGTKLTVLG
B2: 1495_C14 (PGC14) (antibody, human IgG1, lambda, V domains shown)
VH: DGHLVQSGVEVKKTGATVKISCKVSGYSFIDYYLHWVQRAPGKGLEWVGLIDPENGEARYAEKFQGRVTIIADTSIDTGYMEMRSLKSEDTAVYFCAAGAVGADSGSWFDPWGQGTLVTVSS
VL: SYELTQPPSVSVSPGQTASITCSGSKLGDKYVSWYQLRPGQSPILVMYENDRRPSGIPERFSGSNSGDTATLTISGTQALDEADFYCQAWETTTTTFVFFGGGTQLTVLG
B3: 1456_P20 (PG20) (antibody, human IgG1, kappa, V domains shown)
VH: QVRLVQSGPEVKKPGSSVTVSCQASGGTFSSYAFTWVRQAPGQGLEWLGMVTPIFGEAKYSQRFEGRVTITADESTSTTSIELRGLTSEDTAIYYCARDRRAVPIATDNWLDPWGQGTLVTVSS
VL: DIQLTQSPSSLSASVGDRVSITCRASQTINNYLNWYQQTPGKAPKLLIYGASNLQNGVPSRFSGSGSGTDFTLTISSLQPEDFATYYCQQSFSTPRTFGQGTRLDIKR
B4: 1460_G14 (PGG14) (antibody, human IgG1, kappa, V domains shown)
VH: QVLLVQSGTEVKKPGSSVKVSCQASGGAFSSYAFSWVRQAPGQGLEWMGMITPVFGETKYAPRFQGRLTLTAEESLSTTYMELRSLTSDDTAFYYCTRDRRVVPMATDNWLDPWGQGTLVTVSS
VL: B3 VL with S20T, I21V, N30H, N31T, T39I, N53T, N56S, S76N, F92Y
B5: 1443_C16 (PG16) (TCN-116) (antibody, V domains shown)
VH: QEQLVESGGGVVQPGGSLRLSCLASGFTFHKYGMHWVRQAPGKGLEWVALISDDGMRKYHSDSMWGRVTISRDNSKNTLYLQFSSLKVEDTAMFFCAREAGGPIWHDDVKYYDFNDGYYNYHYMDVWGKGTTVTVSS
VL: QSALTQPASVSGSPGQTITISCNGTSSDVGGFDSVSWYQQSPGKAPKVMVFDVSHRPSGISNRFSGSKSGNTASLTISGLHIEDEGDYFCSSLTDRSHRIFGGGTKVTVLG
B6: 1460_G14 (PGG14) (antibody, V domains shown)
VH: B4 VH
VL: DIQLTQSPSSLSASVGDRVTVTCRASQTIHTYLNWYQQIPGKAPKLLIYGASTLQSGVPSRFSGSGSGTDFTLTINSLQPEDFATYYCQQSYSTPRTFGQGTRLDIK
notes: also called B cell culture plate 1460 well G14
B7: 1495_C14 (PGC14) (antibody, V domains shown)
VH: B2 VH
VL: SYELTQPPSVSVSPGQTASITCSGSKLGDKYVSWYQLRPGQSPILVMYENDRRPSGIPERFSGSNSGDTATLTISGTQALDEADFYCQAWETTTTTFVFFGGGTQLTVL
notes: also called B cell culture plate 1495 well C14
B8: 1456_P20 (PG20) (antibody, V domains shown)
VH: B3 VH
VL: B6 VL with T20S, V21I, H30N, T31N, I39T, T53N, S56N, N76S, Y92F
notes: also called B cell culture plate 1456 well P20
B9: 1460_G14 (PGG14) (antibody, V domains shown)
VH: B4 VH
VL: B3 VL with S20T, I21V, N30H, N31T, T39I, N53T, N56S, S76N, F92Y

Molecular target: HIV-1 APV-13 envelope protein (Env) on pseudovirus (HIV-1 isolate APV-13)
Test: cell-based or functional assay

Binder	IC50 (µg/mL), pseudovirus neutralization [µg/mL]
B1	> 50
B2	> 50
B3	> 50
B4	> 50
B5	> 50

Molecular target: HIV-1 92RW020 envelope protein (Env) on pseudovirus (HIV-1 isolate 92RW020)
Test: cell-based or functional assay

Binder	IC50 (µg/mL), pseudovirus neutralization [µg/mL]
B1	0.06
B2	28.6
B3	50
B4	> 50
B5	0.004

Molecular target: HIV-1 94UG103 envelope protein (Env) on pseudovirus (HIV-1 isolate 94UG103)
Test: cell-based or functional assay

Binder	IC50 (µg/mL), pseudovirus neutralization [µg/mL]
B1	0.17
B2	> 50
B3	> 50
B4	> 50
B5	0.008

Molecular target: HIV-1 APV-17 envelope protein (Env) on pseudovirus (HIV-1 isolate APV-17)
Test: cell-based or functional assay

Binder	IC50 (µg/mL), pseudovirus neutralization [µg/mL]
B1	26.4
B2	> 50
B3	> 50
B4	> 50
B5	> 50

Molecular target: HIV-1 CMU02 envelope protein (Env) on pseudovirus (HIV-1 isolate CMU02)
Test: cell-based or functional assay

Binder	IC50 (µg/mL), pseudovirus neutralization [µg/mL]
B1	> 50
B2	> 50
B3	> 50
B4	> 50
B5	> 50

Molecular target: HIV-1 92BR020 envelope protein (Env) on pseudovirus (HIV-1 isolate 92BR020)
Test: cell-based or functional assay

Binder	IC50 (µg/mL), pseudovirus neutralization [µg/mL]
B1	> 50
B2	0.64
B3	> 50
B4	> 50
B5	> 50

Molecular target: HIV-1 IAVI-C18 envelope protein (Env) on pseudovirus (HIV-1 isolate IAVI-C18)
Test: cell-based or functional assay

Binder	IC50 (µg/mL), pseudovirus neutralization [µg/mL]
B1	0.05
B2	> 50
B3	> 50
B4	> 50
B5	0.007

Molecular target: HIV-1 93UG077 envelope protein (Env) on pseudovirus (HIV-1 isolate 93UG077)
Test: cell-based or functional assay

Binder	IC50 (µg/mL), pseudovirus neutralization [µg/mL]
B1	> 50
B2	> 50
B3	> 50
B4	> 50
B5	> 50

Molecular target: HIV-1 IAVI-C22 envelope protein (Env) on pseudovirus (HIV-1 isolate IAVI-C22)
Test: cell-based or functional assay

Binder	IC50 (µg/mL), pseudovirus neutralization [µg/mL]
B2	> 50
B3	> 50
B4	> 50
B5	0.069

Molecular target: HIV-1 92UG024 envelope protein (Env) on pseudovirus (HIV-1 isolate 92UG024)
Test: cell-based or functional assay

Binder	IC50 (µg/mL), pseudovirus neutralization [µg/mL]
B2	> 50
B3	> 50
B4	> 50
B5	> 50

Molecular target: HIV-1 93IN905 envelope protein (Env) on pseudovirus (HIV-1 isolate 93IN905)
Test: cell-based or functional assay

Binder	IC50 (µg/mL), pseudovirus neutralization [µg/mL]
B2	> 50
B3	> 50
B4	> 50
B5	0.1

Molecular target: HIV-1 92UG005 envelope protein (Env) on pseudovirus (HIV-1 isolate 92UG005)
Test: cell-based or functional assay

Binder	IC50 (µg/mL), pseudovirus neutralization [µg/mL]
B1	> 50
B2	> 50
B3	> 50
B4	> 50
B5	> 50

Molecular target: aMLV envelope protein on pseudovirus (negative control) (aMLV)
Test: cell-based or functional assay

Binder	IC50 (µg/mL), pseudovirus neutralization [µg/mL]
B1	> 50
B2	> 50
B3	> 50
B4	> 50
B5	> 50

Molecular target: HIV-1 APV-6 envelope protein (Env) on pseudovirus (HIV-1 isolate APV-6)
Test: cell-based or functional assay

Binder	IC50 (µg/mL), pseudovirus neutralization [µg/mL]
B1	0.09
B2	7.41
B3	25.8
B4	> 50
B5	0.08

Molecular target: HIV-1 IAVI-C3 envelope protein (Env) on pseudovirus (HIV-1 isolate IAVI-C3)
Test: cell-based or functional assay

Binder	IC50 (µg/mL), pseudovirus neutralization [µg/mL]
B1	12.9
B2	9.5
B3	> 50
B4	> 50
B5	14.8

Molecular target: HIV-1 92TH021 envelope protein (Env) on pseudovirus (HIV-1 isolate 92TH021)
Test: cell-based or functional assay

Binder	IC50 (µg/mL), pseudovirus neutralization [µg/mL]
B2	> 50
B3	> 50
B4	> 50
B5	0.13

Molecular target: T1, recombinant monomeric gp120 of HIV-1 isolate JR-CSF (HIV-1 isolate JR-CSF, UniProt P20871 32-503)
T1 construct: domain: gp120
Test: anti-gp120 ELISA, B cell culture supernatant on captured gp120

Binder	ELISA OD [OD]
B6	3.49
B7	3.76
B8	3.78

Molecular target: aMLV envelope protein on pseudotyped virus (negative control) (aMLV)
Test: cell-based or functional assay

Binder	IC50, pseudovirus neutralization, 1 hour Virus/Ab Incubation [µg/mL]	IC50, pseudovirus neutralization, 18 hour Virus/Ab Incubation [µg/mL]
B9	> 50	> 50
